# Data: patent publication US11407819B2, “Compositions and use of a fibrinogen binding motif present in EFB and COA for therapeutics and vaccines against Staphylococcus aureus” (priority 2013, dated 2022)
# How the values were obtained:
# [1] = target: T1, rEfb-O binding to Fg (Homo sapiens, UniProt P02671+P02675+P02679); test: Competition ELISA, peptide inhibition of rEfb-O binding to immobilized Fg; details: rEfb-O 5 nM; peptides 2 μM or increasing concentrations
# T1 construct: full-length human Fibrinogen (diluted in PBS, Enzyme research); purchased Enzyme research; host or cells: Efb probe made in E. coli
# T1 sequence (P02671 20-629 limits assumed): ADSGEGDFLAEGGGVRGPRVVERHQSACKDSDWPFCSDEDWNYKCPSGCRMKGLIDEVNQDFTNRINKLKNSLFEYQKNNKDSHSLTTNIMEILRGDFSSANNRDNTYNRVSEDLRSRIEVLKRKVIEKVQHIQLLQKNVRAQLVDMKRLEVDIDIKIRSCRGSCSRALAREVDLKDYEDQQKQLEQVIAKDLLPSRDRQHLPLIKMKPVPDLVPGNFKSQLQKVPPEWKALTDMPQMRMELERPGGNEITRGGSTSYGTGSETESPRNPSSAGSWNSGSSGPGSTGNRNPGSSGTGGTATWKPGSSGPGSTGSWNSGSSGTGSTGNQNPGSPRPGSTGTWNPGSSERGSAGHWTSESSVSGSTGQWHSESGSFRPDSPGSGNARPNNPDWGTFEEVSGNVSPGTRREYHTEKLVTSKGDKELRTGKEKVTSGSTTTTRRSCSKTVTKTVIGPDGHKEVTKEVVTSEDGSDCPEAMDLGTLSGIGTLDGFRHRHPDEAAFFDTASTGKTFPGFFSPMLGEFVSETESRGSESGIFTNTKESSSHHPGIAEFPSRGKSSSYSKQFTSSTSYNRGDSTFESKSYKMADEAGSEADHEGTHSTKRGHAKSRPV
# T1 sequence (P02675 31-491): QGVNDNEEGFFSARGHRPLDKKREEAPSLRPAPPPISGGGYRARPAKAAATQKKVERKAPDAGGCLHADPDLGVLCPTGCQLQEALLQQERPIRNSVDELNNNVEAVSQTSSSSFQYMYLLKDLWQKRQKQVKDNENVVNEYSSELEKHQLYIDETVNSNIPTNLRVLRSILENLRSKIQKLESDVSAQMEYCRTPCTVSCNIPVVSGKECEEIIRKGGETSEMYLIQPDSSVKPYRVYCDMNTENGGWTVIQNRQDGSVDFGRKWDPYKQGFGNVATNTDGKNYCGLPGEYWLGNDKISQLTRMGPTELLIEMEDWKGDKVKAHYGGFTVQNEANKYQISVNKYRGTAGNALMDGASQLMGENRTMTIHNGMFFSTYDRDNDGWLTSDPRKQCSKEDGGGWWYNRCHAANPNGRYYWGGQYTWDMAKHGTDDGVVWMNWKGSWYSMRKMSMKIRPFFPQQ
# T1 sequence (P02679 27-453): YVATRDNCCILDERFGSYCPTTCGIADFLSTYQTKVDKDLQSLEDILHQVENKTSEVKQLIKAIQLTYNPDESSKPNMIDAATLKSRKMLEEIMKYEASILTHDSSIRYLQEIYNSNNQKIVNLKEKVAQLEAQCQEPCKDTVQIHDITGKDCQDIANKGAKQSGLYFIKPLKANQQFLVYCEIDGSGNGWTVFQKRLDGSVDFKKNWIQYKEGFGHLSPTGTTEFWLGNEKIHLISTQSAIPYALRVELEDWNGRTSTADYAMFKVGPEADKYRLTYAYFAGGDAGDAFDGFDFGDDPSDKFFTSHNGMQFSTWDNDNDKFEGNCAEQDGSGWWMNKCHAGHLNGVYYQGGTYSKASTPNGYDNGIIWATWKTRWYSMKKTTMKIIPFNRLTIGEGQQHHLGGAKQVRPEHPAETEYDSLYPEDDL
# Description: FIG. 10A is a table of the Efb-O variant peptides were synthesized where each residue in the sequence is individually replaced with Ala (or Ser when the native a.a. is Ala). FIG. 10B is a plot of the Efb-O variant peptides inhibit rEfb-O (5 nM) binding to immobilized Fg in solid phase assay. Wells were coated with 0.25 μg/well Fg. Peptides (2 μM) were mixed with rEfb-O proteins (5 nM) and incubated in the Fg wells for 1 hour. FIG. 10C is a plot showing selected peptides inhibit rEfb-O binding to immobilized Fg. Increasing concentrations of Efb peptides were incubated with 5 nM rEfb-O in Fg-coated microtiter wells. To identify the residues in Efb-O that are important for Fg binding an Alanine scanning approach was used. A panel of Efb-O variant peptides were synthesized where each residue in the sequence is individually replaced with Ala (or Ser when the native a.a. is Ala; FIG. 10A). The individual peptides are then examined for their ability to compete with the binding of rEfb-O (5 nM) to immobilized Fg. […]
# In the case of peptide inhibition assay, various concentration of Efb or Coa peptides were mixed with a fixed concentration of Coa-GST or Efb-GST fusion proteins (5-10 nM) in TBS and the bound GST fusion proteins were detected through incubation with HRP-conjugated rabbit anti-GST polyclonal antibodies (5000× dilution). […]
# [2] = target: T2, rCoa binding to Fg (Homo sapiens, UniProt P02671+P02675+P02679); test: Competition ELISA, peptide inhibition of recombinant Coa binding to Fg; details: increasing concentrations of peptide; 4 nM GST-tagged Coa proteins
# T2 construct: full-length human Fibrinogen (diluted in PBS, Enzyme research); purchased Enzyme research; host or cells: Coa probe made in E. coli BL21
# T2 sequence (P02671 20-629 limits assumed): T1 sequence (P02671 20-629 limits assumed)
# T2 sequence (P02675 31-491): T1 sequence (P02675 31-491)
# T2 sequence (P02679 27-453): T1 sequence (P02679 27-453)
# Excerpt: FIG. 9A illustrates a schematic presentation of recombinant Coa fragments generated in this study. Coa is depicted in its secreted form Coa (27-636) lacking the signal peptide (1-26). The N-terminus of Coa (Coa-N; Coa 27-310) constitutes D1D2 prothrombin binding domain. The C-terminus of Coa (Coa-C; Coa 311-636) includes the central region and the tandem-repeat region. The Coa-C further divides into two parts, the Coa-R is corresponding to the tandem-repeat region covering residue 506-636, and the Coa-F fragment covering residues 311-505. Recombinant protein Coa-R0 corresponds to the residues 474-506 residues. […] FIG. 9B illustrates an ELISA assays of GST-tagged Coa fragments binding to immobilized Fg. Open circle, Coa (Coa 27-636); open upright triangle, Coa-N(Coa 27-310); open inverted triangle, Coa-C(Coa 311-636); closed circle, Coa-R (Coa 506-636); closed diamond, Coa-F (Coa 311-505). […] FIG. 9D illustrates the effect of peptide Efb-O on inhibition of rCoa binding to Fg. Increasing concentration of Efb-O were incubated with 4 nM GST-tagged Coa proteins in Fg-coated microtiter wells. Control, BSA.
# […] All proteins were diluted in TBS containing 1% BSA and 0.05% TWEEN® 20 and the ELISA assays were carried out at room temperature.
substance,measurement,setting,value
sEfb-O: synthetic peptide mimicking the high affinity Fg-binding motif in Efb (Efb 68-98) (KYIKFKHDYNILEFNDGTFEYGARPQFN),inhibition of rEfb-O binding to immobilized Fg,[1],efficiently blocked
same,inhibition of recombinant Coa binding to Fg,[2],effectively inhibited recombinant Coa binding to Fg
